# Test results taken from patent US20030219846A1, “Assay for activity of the ActRIIB kinase” (Pfizer Inc., priority 2002, published 2003).
# T1: target peptide
# T1 chain: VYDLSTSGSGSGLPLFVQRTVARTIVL
# B1: his-catActRIIB kinase (protein)
# chain: YGHVDIHEDPGPPPPSPLVGLKPLQLLEIKARGRFGCVWKAQLMNDFVAVKIFPLQDKQSWQSEREIFSTPGMKHENLLQFIAAEKRGSNLEVELWLITAFHDKGSLTDYLKGNIITWNELCHVAETMSRGLSYLHEDVPWCRGEGHKPSIAHRDFKSKNVLLKSDLTAVLADFGLAVRFEPGKPPGDTHGQVGTRRYMAPEVLEGAINFQRDAFLRIDMYAMGLVLWELVSRCKAADGPVDEYMLPFEEEIGQHPSLEELQEVVVHKKMRPTIKDHWLKHPGLAQLCVTIEECWDHDAEARLSAGCVEERVSLIRRSVNGTTSDCLVSLVTSVTNVDLPPKESSI
# B2: MBP: Myelin Basic Protein, a commonly used substrate for kinase assays (protein, UniProt P02687 1-169, looked up)
# Myelin basic protein: AAQKRPSQRSKYLASASTMDHARHGFLPRHRDTGILDSLGRFFGSDRGAPKRGSGKDGHHAARTTHYGSLPQKAQGHRPQDENPVVHFFKNIVTPRTPPPSQGKGRGLSLSRFSWGAEGQKPGFGYGGRASDYKSAHKGLKGHDAQGTLSKIFKLGGRDSRSGSPMARR
# Legend:
# his-catActRIIB kinase [1] = molecular target: T2, his-catActRIIB kinase (Homo sapiens, UniProt Q13705); assay: Scintillation method kinase assay (TCA precipitation, filter plate); format: biochemical; settings: target peptide 176 μM or MBP 2 μM, 10 μM ATP, [33P]-ATP, 80 min, room temperature
# T2 construct: His tag
# Protocol: A series of reaction mixtures comprising 25 mM HEPES (pH 7.3), 3 mM MgCl2, 1 mM MnCl2, 0.1 mM EDTA, 1 mM DTT, 0.2 mM sodium orthovanadate, 100 μg/ml BSA, 10 μM ATP, 0.25 μCi [^33P]y-ATP, and 16.5 μg/ml his-catActRIIB kinase was run in a total of 100 μl directly in a Durapore (Millipore) filter plate for 80 min at room temperature. The reaction was stopped by addition of an equal volume of ice cold TCA (10% or 25% v/v). After one hour at 4° C., the precipitate was collected under vacuum. The precipitate was washed five times with cold TCA. After drying overnight, scintillant was added to the well and plates counted in a Microbeta 1450 Trilux in the Paralux mode. Different reactions included either the target peptide (176 μM), MBP (2 μM), or no substrate.
# his-catActRIIB kinase [2] = molecular target: T2, his-catActRIIB kinase; assay: Autoradiographic kinase assay method (substrate phosphorylation); format: biochemical; settings: 1 mg/ml target peptide or 2.5 μM MBP, 10 μM ATP, [32P]-ATP, 30 minutes, ambient temperature
# Protocol: A 20 μl reaction mixture comprising 2.5 μg/ml his-catActRIIB kinase, 1 mg/ml target peptide or 2.5 μM myelin basic protein (MBP), 10 μM ATP, 10 μCi [^32P]y-ATP (6000 Ci/mmol), 1 mg/ml bovine serum albumin (BSA), and 5 mM sodium orthovanadate in 25 mM HEPES (pH 7.3) was run for 30 minutes at ambient temperature. The reaction was stopped by adding ⅓ volume of 3× Laemmli buffer with β-mercaptoethanol and trace bromphenol blue (188 mM Tris pH 6.8, 3% SDS, 24% glycerol, 25% v/v, β-mercaptoethanol). The stopped reaction was loaded directly onto a 18% polyacrylamide/tris/glycine gel without boiling. The gel was run at about 100 volts to permit proper separation, washed for five minutes in water, and equilibrated for five minutes in semi-dry blotting buffer (48 mM Tris base, 39 mM glycine, 20% methanol, 0.375% SDS). Reaction products were then blotted onto a nitrocellulose filter for 48 minutes at 20 volts in a Bio-Rad semi-dry blotting apparatus and visualized and/or quantitated by autoradiography.
# target peptide = molecular target: T1, target peptide
Molecule,signal from labelled substrate by scintillation counting (his-catActRIIB kinase [1]),"phosphorylation of substrate, labelled band visualized by autoradiography (his-catActRIIB kinase [2])","phosphorylation of substrate, [32P]ATP autoradiography after gel electrophoresis and blotting (myelin basic protein)","phosphorylation of substrate, [33P]ATP, TCA precipitation on filter plate, scintillation counting (myelin basic protein)","phosphorylation of substrate, [32P]ATP autoradiography after gel electrophoresis and blotting (target peptide)","phosphorylation of substrate, [33P]ATP, TCA precipitation on filter plate, scintillation counting (target peptide)"
"H2N-Val-Tyr-Asp-Leu-Ser-Thr-Ser-Gly-Ser-Gly-Ser-Gly-Leu-Pro-Leu-Phe-Val-Gln-Arg-Thr-Val-Ala-Arg-Thr-Ile-Val-Leu-COOH (H-VYDLSTSGSGSGLPLFVQRTVARTIVL-OH; not fully specified) [target peptide, 27 amino acid substrate peptide for the ActRIIB kinase assay]",performed very well,labelled target peptide,,,,
B1,,,"In the reaction mixture comprising MBP, bands were visualized at 18 Kd and 40 Kd, corresponding to labelled MBP and autophosphorylated his-catActRIIB kinase, respectively",the reaction with MBP unexpectedly yields a negative result,"In the reaction mixture comprising target peptide, bands were visualized at 3 Kd and 40 Kd, corresponding to labelled target peptide and autophosphorylated his-catActRIIB kinase, respectively",the reaction performed very well with the target peptide as a substrate
B2,negative result,labelled MBP,,,,
